The values below come from patent publication US20200102347A1 (AUCTUS BIOLOGIES, published 2020).

Sequences and labels used below:
B1: Nterminally tagged NativeRPtag(small)_tagRFP (other)
chain: MGSSGEKIPNFIPAELKLITKENVQGSENLYFQGGSMVSKGEELIKENMHMKLYMEGTVNNHHFKCTSEGEGKPYEGTQTMRIKVVEGGPLPFAFDILATSFMYGSRTFINHTQGIPDFFKQSFPEGFTWERVTTYEDGGVLTATQDTSLQDGCLIYNVKIRGVNFPSNGPVMQKKTLGWEANTEMLYPADGGLEGRSDMALKLVGGGHLICNFKTTYRSKKPAKNLKMPGVYYVDHRLERIKEADKETYVEQHEVAVARYCDLPSKLGHKLNGSSGHHHHHHHH
notes: Fusion of RPtag(small), TEV site, tagRFP and 8XHis
B2: RP-Tag Small (Sequence 3: SEQ ID NO:13 with a glycine serine tail) (peptide)
peptide: RhodamineB-GEKIPNFIPAELKLITKENVQGS
modifications: also: N-terminal label: Rhodamine B / Rhodamine 6B
notes: also called RP-small peptide
B3: NativeRPtag(large)_with_Tags_and_Cys (other)
chain: MGSSCHHHHHHSQDPNSSSMKEGKTIGLVISTLNNPFFVTLKNGAEEKAKELGYKIIVEDSQNDSSKELSNVEDLIQQKVDVLLINPVDSDAVVTAIKEANSKNIPVITIDRSANGGDVVSHIASDNVKGGEMAAEFIAKALKGKGNVVELEGIPGASAARDRGKGFDEAIAKYPDIKIVAKQAADFDRSKGLSVMENILQAQPKIDAVFAQNDEMALGAIKAIEAANRQGIIVVGFDGTEDALKAIKEGKMAATIAQQPALMGSLGVEMADKYLK
notes: Unlabeled in anisotropy assays; coupled through the engineered N-terminal Cys to SulfoLink agarose or maleimide plates in column, pull-down and ELISA assays
B4: Cterminally_tagged_NativeRPtag(small)_tagRFP (other)
chain: MGSSHHHHHHHHGSMVSKGEELIKENMHMKLYMEGTVNNHHFKCTSEGEGKPYEGTQTMRIKVVEGGPLPFAFDILATSFMYGSRTFINHTQGIPDFFKQSFPEGFTWERVTTYEDGGVLTATQDTSLQDGCLIYNVKIRGVNFPSNGPVMQKKTLGWEANTEMLYPADGGLEGRSDMALKLVGGGHLICNFKTTYRSKKPAKNLKMPGVYYVDHRLERIKEADKETYVEQHEVAVARYCDLPSKLGHKLNGSSGENLYFQGGSGEKIPNFIPAELKLITKENVQGS
notes: Fusion of 8XHis, tagRFP, TEV site and RPtag(small)

In experiment [1] the target is T1, NativeRPtag small for immobilization (Thermoanaerobacter tengcongensis, C-terminal Cys (GGC) coupled to SulfoLink agarose resin).
T1 construct: also called immobilized RPtag (small)
T1 peptide: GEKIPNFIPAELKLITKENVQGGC
Put plainly: column binding; non-complementary tagRFP fusion applied to immobilized RPtag (small), washed, photographed.

Experiment [2] concerns the target B3. Nature of the experiment: column binding; 25 mL of 1 µM tagRFP fusion applied to immobilized RPtag (large), washed with 10 mL TNE buffer, photographed.
Experimental: After purification of the tagged proteins, each was applied to its complementary column to evaluate binding. […] Briefly, columns were first equilibrated in 20 mM Tris pH 8.0, 150 mM NaCl, 1 mM EDTA (TNE buffer), then 25 mL of 1 μM tagged protein in TNE buffer was applied to the column at a flow rate of 1 ml/min, then washed with 10 mL of TNE buffer. Columns were cleaned with 10 mL 100 mM Glycine pH 1.5 between uses.
Briefly, columns were equilibrated in 20 mM Tris pH 8.0, 150 mM NaCl, 1 mM EDTA (TEN buffer), then 25 mL of 1 μM tagged protein in TEN buffer was applied to the column at a flow rate of 1 ml/min. Thereafter, the column was washed with 10 mL of TEN buffer, and the results recorded by photograph (FIG. 8). Columns were cleaned with 10 mL 100 mM Glycine pH 1.5 between uses.
The target of another experiment is T2, Bovine Serum Albumin (bovine, UniProt P02769 25-607).
T2 construct: also called BSA
Put plainly: fluorescence anisotropy; 50 nM N-terminal Rhodamine B RP-Tag Small, BSA titrated.

Experiment [3] has as its target B3. Put plainly: fluorescence anisotropy, competitor chase.
For experiment [4], the target named is B3. Put plainly: fluorescence anisotropy.
Experiment [5] addresses B3. Nature of the experiment: calculated from koff and Kd.
Experiment [6] has as its target B3. Nature of the experiment: fluorescence anisotropy, association kinetics.
Experiment [7] addresses B3. Put plainly: fluorescence anisotropy kinetics.
For a further experiment, the target named is T3, RPtag(small) l14k (Thermoanaerobacter tengcongensis, N-terminal rhodamine).
T3 construct: also called L14K RPtag(small)
T3 peptide: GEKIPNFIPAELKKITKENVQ
Put plainly: fluorescence anisotropy; 1 nM rhodamine RPtag small peptide, unlabeled RPtag large titrated, 1 h; 50 mM Tris pH 8.0, 0.005% Tween20; bar of Ka = 1/Kd.

For a further experiment, the target named is T4, RPtag(small) l14a (Thermoanaerobacter tengcongensis, N-terminal rhodamine).
T4 peptide: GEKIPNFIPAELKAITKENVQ
Described as above.

Experiment [8] addresses T5, MaturePDGF-β_NterminalPeptide.
T5 construct: an N-terminal G was added and is left out of the numbering; also called PDGF-β peptide
T5 peptide: RhodamineB-GSLGSLTIAEPAMIAE
Nature of the experiment: fluorescence anisotropy, 20 nM rhodamine PDGF-β N-terminal peptide.
Experimental: (§1) After the incubation, fluorescence anisotropy was measured, and the resultant curves were fit with the equation f=y0+(ymax−y0)*(Ptot+x+Kd−sqrt((Ptot+x+Kd)\hat{ }2−4*Ptot*x))/(2*Ptot), where y0 is the baseline anisotropy, ymax is the maximum anisotropy, Ptot is the fixed concentration of labeled peptide used, x is the variable concentration of protein used, and Kd is the measured Kd. […] Buffer was 50 mM Tris pH 8.0, 0.005% Tween20.

For another experiment, the target named is T6, RPtag(small) Nd2, Cd4 (Thermoanaerobacter tengcongensis).
T6 peptide: RhodamineB-KIPNFIPAELKLITK
Put plainly: fluorescence anisotropy; 2 nM rhodamine Nd2Cd4, unlabeled RPtag large variant titrated; bar of Ka = 1/Kd, right axis.

For experiment [9], the target named is T7, native RPtag(small) (Thermoanaerobacter tengcongensis, N-terminal rhodamine).
T7 construct: Synthetic peptide
T7 peptide: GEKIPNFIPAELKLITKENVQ
Put plainly: fluorescence anisotropy.
Experimental: (§2) Kd's were calculated according to the equation f=y0+(ymax−y0)*(Ptot+x+Kd−sqrt((Ptot+x+Kd)\hat{ }2−4*Ptot*x))/(2*Ptot), where y0 is the baseline anisotropy, ymax is the maximum anisotropy, Ptot is the fixed concentration of labeled peptide used, x is the variable concentration of protein used, and Kd is the measured Kd.

Experiment [10] has as its target T7, native RPtag(small). Nature of the experiment: fluorescence anisotropy; 1 nM rhodamine native RPtag (small), RPtag (large) titrated.
Experimental: as §2
The target in experiment [11] is B2. Put plainly: fluorescence anisotropy; 50 nM N-terminal Rhodamine B RP-Tag Small, RP-Tag Large titrated; 50 mM Tris pH 8.0, 150 mM NaCl, 10 mM 2-mercaptoethanol, 0.005% Tween 20.
Experimental: (§3) Anisotropy was then measured, and a Kd calculated by fitting the data to the equation f=y₀+(yₘₐₓ−y₀)*(Pₜₒₜ+x+Kd−sqrt((Pₜₒₜ+x+Kd)\hat{ }2-4*Pₜₒₜ*x))/(2*Pₜₒₜ), where y₀ is the baseline anisotropy, yₘₐₓ is the maximum anisotropy, Pₜₒₜ is the fixed concentration of labeled peptide used, x is the variable concentration of protein used, and Kd is the measured Kd.
For experiment [12], the target named is T7, native RPtag(small). Put plainly: fluorescence anisotropy, 1 nM rhodamine peptide.
Experimental: as §2
The target in experiment [13] is T7, native RPtag(small). Nature of the experiment: fluorescence anisotropy after a 15 min 121 C autoclave cycle of RP-tag (large); RP-tag (large) autoclaved 15 min at 121 C before the measurement.
The target of experiment [14] is B2. Put plainly: fluorescence anisotropy, 50 nM Rhodamine B RP-Tag Small.
Experimental: as §3
The target in experiment [15] is T8, NativeRPtag(large)_with_Tags_and_Cys (Thermoanaerobacter tengcongensis).
T8 chain: B3 chain
Nature of the experiment: fluorescence anisotropy; acetone (20%).

Experiment [16] deals with T8, NativeRPtag(large)_with_Tags_and_Cys …. Put plainly: fluorescence anisotropy; glycerol (20%).
The target is the same in experiment [17]. Nature of the experiment: fluorescence anisotropy; ribose (3M).
For experiment [18] the target is unchanged. Nature of the experiment: fluorescence anisotropy, competitor chase; 50 mM Tris pH 8.0, 0.005% Tween 20, no additive (Table 2).
Experiment [19] has the same target. Nature of the experiment: fluorescence anisotropy; NiCl2 (100 mM).
For experiment [20] the target is unchanged. Nature of the experiment: fluorescence anisotropy; BME (10%).
The target is the same in experiment [21]. Put plainly: fluorescence anisotropy; TritonX-100 (2%).
The target is the same in experiment [22]. Nature of the experiment: fluorescence anisotropy; DTT (100 mM).
For experiment [23] the target is unchanged. Nature of the experiment: fluorescence anisotropy; 50 mM Tris pH 8.0, 0.005% Tween 20, no additive (Table 2).
Experiment [24] has the same target. Nature of the experiment: pull-down with RPtag(large) resin.
For experiment [25] the target is unchanged. Put plainly: fluorescence anisotropy; MgCl2 (3M).
The target is the same in experiment [26]. Put plainly: fluorescence anisotropy; No Additive; No Additive; 100 mM Tris pH 8.0, 0.005% Tween 20 (Table 3).
The target is the same in experiment [27]. Put plainly: fluorescence anisotropy; MnSO4 (10 mM).
For experiment [28] the target is unchanged. Put plainly: fluorescence anisotropy; NaCl (3M).
Experiment [29] has the same target. Put plainly: fluorescence anisotropy; MeOH (20%); MeOH (20%).
For experiment [30] the target is unchanged. Nature of the experiment: fluorescence anisotropy; sorbitol (3M).
The target is the same in experiment [31]. Nature of the experiment: fluorescence anisotropy; PG (50%).
Experiment [32] shares this target. Nature of the experiment: fluorescence anisotropy; NH4SO4 (3M).
The target is the same in experiment [33]. Nature of the experiment: fluorescence anisotropy; DMSO (20%); DMSO (20%).
Experiment [34] shares this target. Put plainly: fluorescence anisotropy; EtOH (20%); EtOH (20%).
For experiment [35] the target is unchanged. Nature of the experiment: fluorescence anisotropy; Tween20 (2%).
Experiment [36] shares this target. Nature of the experiment: fluorescence anisotropy, buffer additive screen.
Experiment [37] has the same target. Nature of the experiment: fluorescence anisotropy; KCl (3M).

No end group written: not given here. *: point of attachment. RhodamineB = CCN(CC)c1ccc2c(-c3ccccc3C(=O)*)c3ccc(=[N+](CC)CC)cc-3oc2c1

T2 sequence (P02769 25-607 limits assumed): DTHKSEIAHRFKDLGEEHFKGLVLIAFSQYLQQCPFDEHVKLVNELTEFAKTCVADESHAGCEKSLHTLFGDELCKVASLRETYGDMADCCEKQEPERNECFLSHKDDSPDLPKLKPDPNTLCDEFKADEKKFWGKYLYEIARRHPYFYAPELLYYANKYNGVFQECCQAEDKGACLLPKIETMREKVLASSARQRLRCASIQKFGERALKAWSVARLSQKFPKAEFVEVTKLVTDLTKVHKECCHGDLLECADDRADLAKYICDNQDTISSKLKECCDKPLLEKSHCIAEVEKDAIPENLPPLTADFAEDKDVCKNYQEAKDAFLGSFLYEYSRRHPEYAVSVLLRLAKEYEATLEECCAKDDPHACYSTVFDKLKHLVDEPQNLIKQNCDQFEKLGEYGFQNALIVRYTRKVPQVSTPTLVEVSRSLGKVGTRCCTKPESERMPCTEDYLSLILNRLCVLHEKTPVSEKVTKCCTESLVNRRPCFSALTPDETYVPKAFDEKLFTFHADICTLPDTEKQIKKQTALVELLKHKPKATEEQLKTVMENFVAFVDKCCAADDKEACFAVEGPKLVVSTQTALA
Experimental for Bovine Serum Albumin: as §3
Experimental for RPtag(small) Nd2, Cd4: as §1
Experimental for RPtag(small) l14a: (§4) Resultant curves were fit with the equation f=y0+(ymax−y0)*(Ptot+x+Kd−sqrt((Ptot+x+Kd)\hat{ }2−4*Ptot*x))/(2*Ptot), where y0 is the baseline anisotropy, ymax is the maximum anisotropy, Ptot is the fixed concentration of labeled peptide used, x is the variable concentration of protein used, and Kd is the measured Kd. […] Buffer was 50 mM Tris pH 8.0, 0.005% tween20.
Experimental for RPtag(small) l14k: as §4

With B1, the figures for the binding result in experiment [1] and in experiment [2] were “no binding (tested: 1 µM (25 mL applied))” and “binds”, respectively.

B2: in the experiment with Bovine Serum Albumin, the binding result was “no binding”.

On to RhodamineB-GEKIANFIPAELKLITKENVQ [RPtag(small) p5a], for which the koff in experiment [3] stood at 0.0004 s⁻¹. Binding in experiment [4] was characterised by a dissociation constant (Kd) of 0.23 nM. Moreover, the association rate constant (kon) in experiment [5] was 1.83e+06 M⁻¹ s⁻¹. Also, in [6], the “Keq (S-S*)” value came out at 1.8, the “kf (S to S*)” value is 0.093 min⁻¹ and the “kr (S* to S)” value is 0.052 min⁻¹. Besides, the “fold increase of kon and koff against native” value in experiment [7] was around 7 fold.

On to B3, for which the binding result with RPtag(small) l14k is “binds”; with RPtag(small) l14a, “binds”; in the experiment with RPtag(small) Nd2, Cd4 it was “binds”. The dissociation constant Kd was 7300 nM in experiment [8], 0.2 nM with native RPtag(small) [12], 53 nM in the experiment with native RPtag(small) [13] and 8 nM in [14]. For the same molecule, the “fold better Kd than anti-6xHis/6xHis” value with native RPtag(small) [9] is around 30 fold. Further, the “fold selectivity over BSA” value with native RPtag(small) [9] is above 50000 fold. Further, the results for the “EC50 (read off the curve)” value (with native RPtag(small) [10]; in experiment [11]) were around 0.8 nM and around 30 nM, respectively.

For the molecule B4, the binding result was “no binding (tested: 1 µM (25 mL applied))” in [1] and “binds” in experiment [2].

Turning to PAELKLITK (modifications not checked) [RPtag(small) Nd8, Cd4], the dissociation constant (Kd) in [15] was 22 nM; in experiment [16] it was 27 nM; in [17] it was 42 nM; in experiment [19], 42 nM; in experiment [20], 740 nM; in [21] it was 180 nM. Also, the dissociation constant (Kd) was 33 nM in experiment [22]; 14 nM in experiment [23]; 240 nM in [25]; 14 nM in experiment [26]; 160 nM in experiment [27]; 0.15 nM in [28]. Also, the Kd amounted to 34 nM in experiment [29]; 16 nM in experiment [30]; 4600 nM in experiment [31]; 2.8 nM in experiment [32]; 140 nM in experiment [33]; 733 nM in [34]. The results for the equilibrium dissociation constant (Kd) in experiment [35] and in experiment [37] were 45 nM and 0.066 nM, respectively. Besides, in experiment [18], the koff is above 0.0333 s⁻¹. This molecule had a resin binding capacity in experiment [24] of 200 nmol/mL. The fold increase of affinity with kosmotropic salts (NaCl, KCl) in experiment [36] was above 100 fold.
